Source: patent publication US20160083733A1, “NOVEL TREATMENT OF METABOLIC DISEASES” (UNIVERSITY OF BREMEN, priority 2013, published 2016)

B1: dnJNK1: dominant negative mutant of JNK1 expressed from plasmid pCDNA3 Jnk1a1 (apf) (protein, UniProt P45983 1-427, looked up, variant T183A Y185F)
Mitogen-activated protein …: MSRSKRDNNFYSVEIGDSTFTVLKRYQNLKPIGSGAQGIVCAAYDAILERNVAIKKLSRPFQNQTHAKRAYRELVLMKCVNHKNIIGLLNVFTPQKSLEEFQDVYIVMELMDANLCQVIQMELDHERMSYLLYQMLCGIKHLHSAGIIHRDLKPSNIVVKSDCTLKILDFGLARTAGTSFMMAPFVVTRYYRAPEVILGMGYKENVDLWSVGCIMGEMVCHKILFPGRDYIDQWNKVIEQLGTPCPEFMKKLQPTVRTYVENRPKYAGYSFEKLFPDVLFPADSEHNKLKASQARDLLSKMLVIDASKRISVDEALQHPYINVWYDPSEAEAPPPKIPDKQLDEREHTIEEWKELIYKEVMDLEERTKNGVIRGQPSPLGAAVINGSQHPSSSSSVNDVSSMSTDPTLASDTDSSLEAAAGPLGCCR
B2: dnMST1: kinase-dead, dominant negative MST1 mutant (K59R) expressed from plasmid (protein, UniProt Q13043 1-487, looked up, variant K59R)
Serine/threonine-protein …: METVQLRNPPRRQLKKLDEDSLTKQPEEVFDVLEKLGEGSYGSVYKAIHKETGQIVAIRQVPVESDLQEIIKEISIMQQCDSPHVVKYYGSYFKNTDLWIVMEYCGAGSVSDIIRLRNKTLTEDEIATILQSTLKGLEYLHFMRKIHRDIKAGNILLNTEGHAKLADFGVAGQLTDTMAKRNTVIGTPFWMAPEVIQEIGYNCVADIWSLGITAIEMAEGKPPYADIHPMRAIFMIPTNPPPTFRKPELWSDNFTDFVKQCLVKSPEQRATATQLLQHPFVRSAKGVSILRDLINEAMDVKLKRQESQQREVDQDDEENSEEDEMDSGTMVRAVGDEMGTVRVASTMTDGANTMIEHDDTLPSQLGTMVINAEDEEEEGTMKRRDETMQPAKPSFLEYFEQKEKENQINSFGKSVPGPLKNSSDWKIPQDGDYEFLKSWTVEDLQKRLLALDPMMEQEIEEIRQKYQSKRQPILDAIEAKKRRQQNF

Tests used:
human islets = assay: MST1 overexpression (Ad-MST1)-induced apoptosis in human islets; assay type: cell-based; conditions: Ad-MST1 48 h
Text: (§1) Human islets were isolated from twenty pancreases of healthy organ donors and from five with T2D at the University of Illinois at Chicago or Lille University and cultured on extracellular matrix (ECM) coated dishes (Novamed, Jerusalem, Israel) as described previously (Schulthess et al., Cell. Metab. 9 (2009) 125-139). Islet purity was greater than 95% as judged by dithizone staining (if this degree of purity was not achieved by routine isolation, islets were handpicked). Islets from MST1^−/− mice and their WT littermates were isolated as described previously (Schulthess et al., Cell. Metab. 9 (2009) 125-139). […]
Pancreatic tissues were processed as previously described (Shu et al., Diabetes 57 (2007), 645-53). […] Slides were mounted with Vectashield with 4′6-diamidino-2-phenylindole (DAPI) (Vector Labs). β-cell apoptosis for mouse sections or primary islets cultured on ECM dishes was analyzed by the terminal deoxynucleotidyl transferase-mediated dUTP nick-end labeling (TUNEL) technique according to the manufacturer's instructions (In Situ Cell Death Detection Kit, TMR red; Roche) and double stained for insulin. Fluorescence was analyzed using a Nikon MEA53200 (Nikon GmbH, Dusseldorf, Germany) microscope and images were acquired using NIS-Elements software (Nikon). […]

PDX1 = PDX1 protein level, degradation and ubiquitination in HEK293 cells co-transfected with MST1; assay type: cell-based, mouse; conditions: co-transfection with PDX1 in HEK293 cells
Text: pCMV-myc-MST1 and kinase-dead (MST1-K59; dnMST1) are described in Yamamoto et al., J. Clin. Invest. 111 (2003), 1463-1474. Mouse pB.RSV.PDX1-GFP is described in Kawamori et al., Diabetes 52 (2003) 2896-2904. pcDNA3 Myr-HA Akt1, HA-Ubiquitin and pCDNA3 Jnk1a1 (apf)(dn-JNK) plasmids were obtained from Addgene (Cambridge, Mass.). Mouse PDX1 mutants (T11, T126, T152, T155, T214 and T231) in pCGIG5 vector were generated by site-directed mutagenesis as described previously (Frogne et al., 7 (2012), e35233). All mutations were verified by sequencing. To make bacterial expression plasmids for PDX1 mutants, the complete mouse PDX1 CDS (wild type and mutants) has been amplified by PCR using a specific set of primers from pCGIG5 plasmids and cloned into a pGEX-6P-1 bacterial expression vector. The rat insulin driven luciferase vector (RIP-Luc) was constructed by subcloning a 700 by fragment containing −660 bp of the rat 2 insulin promoter into a pMCS-Green-Renilla-Luc vector (Thermo Scientific). pCMV-Red firefly Luc vector was obtained from Thermo Scientific.
HEK293 cells were cultured in 10-cm cell culture dishes and transfected with HA-ubiquitin, PDX1 and MST1 expression plasmids for 48 h. For ubiquitination in human islets, 5000 islets per condition were transfected with ubiquitin plasmid. After 24 h, islets were infected with Ad-GFP or Ad-MST1 for 6 h and kept for another 48 h. […]

INS-1E cells = assay: Apoptotic markers, cytochrome c release and PDX1 in INS-1E cells under diabetogenic conditions; assay type: cell-based, rat; conditions: 33.3 mM glucose for 48 h, overexpression of dnMST1
Text: as §1
At the end of the incubation periods, islets and INS1E cells were washed in ice-cold PBS and lysed in lysis buffer containing 20 mM Tris acetate, 0.27 M sucrose, 1 mM EDTA, 1 mM EGTA, 50 mM NaF, 1% Triton X-100, 5 mM sodium pyrophosphate and 10 mM β-glycerophosphate. […] Protein concentrations were determined with the BCA protein assay (Pierce). […] Membrane was developed using a chemiluminescence assay system (Pierce) and analyzed using DocIT®LS image acquisition 6.6a (UVP BioImaging Systems, Upland, Calif., USA). […]

Molecule	MST1-induced increase in Bim and subsequent caspase-3 cleavage (human islets)	PDX1 level (PDX1)	glucose-induced caspase-3 and PARP cleavage (INS-1E cells)
B1	prevented		
B2		no effect	completely inhibited
